Biological target: Fis (UniProt A0A0H2ZIA5 1-107)
Assay: EMSA
Conditions: protein: recombinant; chain copies: 2; label: none (ethidium bromide stain)

B1: exsA promoter -10 box probe (original Fis site, exsB-exsA intergenic) (dsDNA)
DNA 1: TAATCCTGATTATTATAAAATCGACTCCGTG
DNA 2: CACGGAGTCGATTTTATAATAATCAGGATTA
binding result: binds
